Measurements as given in paper doi:10.1101/452920.
Like-named read-outs stand apart in the source and are kept apart here.

Assays:
Assay in all cases: fluorescence anisotropy
MRPP3 (Δ95) = target: T1, MRPP3 (Δ95) (human, UniProt O15091 96-583, del1-95)
T1 sequence: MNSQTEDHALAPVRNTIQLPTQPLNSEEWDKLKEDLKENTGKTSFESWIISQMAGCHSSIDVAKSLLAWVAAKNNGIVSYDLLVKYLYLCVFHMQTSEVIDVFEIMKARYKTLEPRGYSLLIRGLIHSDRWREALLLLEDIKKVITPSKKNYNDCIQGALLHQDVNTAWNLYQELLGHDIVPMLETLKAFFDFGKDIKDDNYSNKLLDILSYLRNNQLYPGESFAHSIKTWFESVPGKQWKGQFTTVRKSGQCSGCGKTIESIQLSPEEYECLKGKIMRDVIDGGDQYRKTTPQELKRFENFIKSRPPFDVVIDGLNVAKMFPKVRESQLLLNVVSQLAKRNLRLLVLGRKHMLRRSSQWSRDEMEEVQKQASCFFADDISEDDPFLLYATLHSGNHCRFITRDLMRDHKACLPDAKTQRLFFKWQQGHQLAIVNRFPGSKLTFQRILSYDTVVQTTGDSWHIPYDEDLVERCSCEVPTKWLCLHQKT

MRPP1 (Δ39);MRPP2 [1] = target: T2, MRPP1 (Δ39);MRPP2 (human;human, UniProt Q7L0Y3;Q99714 40-403;1-261, del1-39|)
T2 sequence 1: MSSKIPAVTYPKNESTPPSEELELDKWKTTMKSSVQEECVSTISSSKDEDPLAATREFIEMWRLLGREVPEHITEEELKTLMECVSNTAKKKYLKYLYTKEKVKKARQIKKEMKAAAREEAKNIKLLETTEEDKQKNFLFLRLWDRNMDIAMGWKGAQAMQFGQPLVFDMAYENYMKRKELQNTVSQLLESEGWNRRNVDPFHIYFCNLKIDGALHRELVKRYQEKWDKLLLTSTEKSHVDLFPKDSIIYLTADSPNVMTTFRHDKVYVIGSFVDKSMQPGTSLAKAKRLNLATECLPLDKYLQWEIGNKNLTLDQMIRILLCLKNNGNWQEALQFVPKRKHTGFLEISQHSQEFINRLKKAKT
T2 sequence 2: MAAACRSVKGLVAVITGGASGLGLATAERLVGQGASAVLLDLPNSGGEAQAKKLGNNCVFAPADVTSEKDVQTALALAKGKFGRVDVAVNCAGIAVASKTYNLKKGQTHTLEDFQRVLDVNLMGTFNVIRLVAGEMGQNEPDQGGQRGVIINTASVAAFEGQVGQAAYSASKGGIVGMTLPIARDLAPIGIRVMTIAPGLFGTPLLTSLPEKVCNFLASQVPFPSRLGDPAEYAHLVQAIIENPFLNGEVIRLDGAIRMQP

[2] = target: T3, MRPP1 (Δ39);MRPP2;MRPP3 (Δ95) (human;human;human, UniProt Q7L0Y3;Q99714;O15091 40-403;1-261;96-583, del1-39||del1-95)
T3 sequence 1: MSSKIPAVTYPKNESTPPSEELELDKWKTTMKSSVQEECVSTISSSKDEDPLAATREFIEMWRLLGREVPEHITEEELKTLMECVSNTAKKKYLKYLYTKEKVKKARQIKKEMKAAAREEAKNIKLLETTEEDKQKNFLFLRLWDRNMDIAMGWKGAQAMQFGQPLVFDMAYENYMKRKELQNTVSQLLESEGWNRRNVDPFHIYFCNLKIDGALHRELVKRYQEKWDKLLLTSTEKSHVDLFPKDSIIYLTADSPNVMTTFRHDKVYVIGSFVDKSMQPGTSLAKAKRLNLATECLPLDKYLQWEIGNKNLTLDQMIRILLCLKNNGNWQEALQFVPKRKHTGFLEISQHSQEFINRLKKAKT
T3 sequence 2: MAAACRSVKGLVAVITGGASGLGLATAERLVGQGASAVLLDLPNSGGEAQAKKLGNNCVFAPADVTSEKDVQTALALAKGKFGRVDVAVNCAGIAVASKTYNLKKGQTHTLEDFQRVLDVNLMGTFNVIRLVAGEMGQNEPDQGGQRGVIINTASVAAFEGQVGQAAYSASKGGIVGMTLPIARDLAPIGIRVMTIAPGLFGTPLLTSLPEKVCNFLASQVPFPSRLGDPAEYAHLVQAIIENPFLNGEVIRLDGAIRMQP
T3 sequence 3: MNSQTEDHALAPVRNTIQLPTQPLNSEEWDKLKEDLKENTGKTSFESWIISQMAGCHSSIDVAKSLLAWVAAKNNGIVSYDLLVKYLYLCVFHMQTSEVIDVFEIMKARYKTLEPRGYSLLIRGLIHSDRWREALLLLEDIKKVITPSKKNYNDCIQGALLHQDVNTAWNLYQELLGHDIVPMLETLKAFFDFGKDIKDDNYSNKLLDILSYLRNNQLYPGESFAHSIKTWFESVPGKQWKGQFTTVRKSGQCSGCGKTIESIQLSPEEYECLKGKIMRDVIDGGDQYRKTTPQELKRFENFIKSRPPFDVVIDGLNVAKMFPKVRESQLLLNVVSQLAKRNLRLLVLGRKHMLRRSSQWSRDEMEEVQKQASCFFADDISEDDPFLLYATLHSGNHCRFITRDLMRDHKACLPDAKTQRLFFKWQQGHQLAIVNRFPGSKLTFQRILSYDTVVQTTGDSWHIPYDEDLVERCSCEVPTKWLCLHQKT

MRPP1 (Δ39);MRPP2 [3] = target: T2, MRPP1 (Δ39);MRPP2; remark: listed apart in the source
[4] = target: T3, MRPP1 (Δ39);MRPP2;MRPP3 (Δ95); remark: listed apart in the source

B1: (mt)pre-tRNAVal7:0 (structured_RNA)
RNA: GACGAACCAGAGUGUAGCUUAACACAAAGCACCCAACUUACACUUAGGAGAUUUCAACUUAACUUGACCGCUCUGA
- Kd (MRPP3 (Δ95)): 21.7 ± 2.6 µM
- binding result (MRPP1 (Δ39);MRPP2 [1]): binds
- binding result [2]: binds

B2: (mt)pre-tRNAVal/C9 (structured_RNA)
RNA: GACGAACCAGAGUGUCGCUUAACACAAAGCACCCAACUUACACUUAGGAGAUUUCAACUUAACUUGACCGCUCUGA
- binding result (MRPP1 (Δ39);MRPP2 [3]): binds
- binding result [4]: binds
